Results as given in patent US20260265385A1 (ANAPTYSBIO, published 2026).

T1: recombinant human IL-2Rβ (extracellular domain, Ala1-Thr215) (human, UniProt P14784 27-240)
T1 construct: extracellular domain; Analyte in SPR; Ala1-Thr215 is counted on the mature protein; also called human LL-2Rβ; Human IL-2RB
T1 sequence (looked up): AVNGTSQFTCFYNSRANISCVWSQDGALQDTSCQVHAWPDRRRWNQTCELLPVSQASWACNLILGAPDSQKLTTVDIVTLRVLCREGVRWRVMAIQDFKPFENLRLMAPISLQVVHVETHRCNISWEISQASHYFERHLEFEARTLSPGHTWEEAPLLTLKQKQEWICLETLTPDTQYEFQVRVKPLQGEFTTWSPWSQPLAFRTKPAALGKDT

T2: recombinant cynomolgus IL-2Rβ (extracellular domain, Ala1-Thr215) (cynomolgus, UniProt Q38J85 27-240)
T2 construct: extracellular domain; Analyte in SPR; also called cynomolgus LL-2Rβ; Cyno IL-2RB
T2 sequence (looked up): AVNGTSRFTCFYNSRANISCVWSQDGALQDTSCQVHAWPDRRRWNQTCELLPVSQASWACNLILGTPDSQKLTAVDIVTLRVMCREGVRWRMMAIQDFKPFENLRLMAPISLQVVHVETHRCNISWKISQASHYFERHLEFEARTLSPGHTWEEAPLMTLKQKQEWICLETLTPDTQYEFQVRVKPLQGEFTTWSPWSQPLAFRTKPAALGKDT


Assays:
[1] = molecular target: T1, recombinant human IL-2Rβ (extracellular …); assay: SPR, antibody captured on Protein A chip
Description: (§1) Surface plasmon resonance (SPR) was used to determine the binding affinities. The M6-1625 and M10-1275 antibodies were captured onto a Cytiva Protein A Chip for 60 seconds at 0.5 μg/mL for 60 seconds. The antibodies were exposed to recombinant human LL-2Rβ or cynomolgus LL-2Rβ (corresponding to residues Ala1-Thr215 of the extracellular domains excluding the signal peptide) at typical concentrations ranging from 0.4 nM to 11 nM with typical 300 second associations and 1200 second dissociations using a BiacoreS200 instrument. Sensorgrams were fit globally using a 1:1 binding model in the Biacore T200 Evaluation Software to calculate on- and off-rates and KD values.

[2] = molecular target: T2, recombinant cynomolgus IL-2Rβ …; assay: SPR, antibody captured on Protein A chip
Description: as §1

Kd [1] | Kd [2] | Binder
0.357 nM | 0.255 nM | APE14946 (antibody, V domains shown, M6-p1625 series) VH: QVQLVQSGAEVKKPGASVKVSCKASGYTFSRYWIEWVRQAPGQGLEWMGEILPGSGSINHNEKFQGRVTFTADTSTSTVYMELSSLRSEDTAVYFCTRHYGSFDYWGQGTTVTVSS VL: DIQMTQSPSSLSASVGDRVTITCKASQNVGTDVAWYQQKPGKAPKSLIYSASYRYSGVPSRFSGSGSGTDFTLTISSLQPEDFATYFCHQYSSYPFTFGQGTKLEIKR
0.657 nM | 0.44 nM | APE15090 (antibody, V domains shown, M6-p1625 series) VH: QVQLVQSGAEVKKPGASVKVSCKASGYTFSRYWIEWVRQAPGQGLEWMGEILPGSGSIDHNEKFQGRVTMTRDTSTSTVYMELSSLRSEDTAVYYCTRHYGSFDYWGQGTTVTVSS VL: DIQMTQSPSSLSASVGDRVTITCKASQNVGTDVAWYQQKPGKAPKSLIYSASYRYSGVPSRFSGSGSGTDFTLTISSLQPEDFATYFCHQYSSYPFTFGQGTKLEIKR
0.522 nM | 0.533 nM | APE15279 (antibody, V domains shown, M6-p1625 series) VH: QVQLVQSGAEVKKPGASVKVSCKASGYTFTSQWIEWVRQAPGQGLEWMGEILPGSGSINHNEKFQGRVTMTRDTSTSTVYMELSSLRSEDTAVYYCTRHYGSFDYWGQGTTVTVSS VL: DIQMTQSPSSLSASVGDRVTITCKASQNVGTDVAWYQQKPGKAPKSLIYSASYRYSGVPSRFSGSGSGTDFTLTISSLQPEDFATYFCHQYESYPFTFGQGTKLEIKR
0.252 nM | 0.192 nM | APE14950 (antibody, V domains shown, M6-p1625 series) VH: QVQLVQSGAEVKKPGASVKVSCKASGYTFSRYWIEWVRQAPGQGLEWMGEILPGSGSINHNEKFQGRVTMTRDTSTSTVYMELSSLRSEDTAVYYCTRHYGSFDYWGQGTTVTVSS VL: DIQMTQSPSSLSASVGDRVTITCKASQNVGTDVAWYQQKPGKAPKSLIYSASYRYSGVPSRFSGSGSGTDFTLTISSLQPEDFATYFCHQYSSYPFTFGQGTKLEIKR
1.04 nM | 9.39 nM | APE15089 (antibody, V domains shown, M6-p1625 series) VH: QVQLVQSGAEVKKPGASVKVSCKASGYTFSRYWIEWVRQAPGQGLEWMGEILPGSGSINHNEKFQGRVTMTRDTSTSTVYMELSSLRSEDTAVYYCTRHYGSFDYWGQGTTVTVSS VL: DIQMTQSPSSLSASVGDRVTITCKASQNVDTDVAWYQQKPGKAPKSLIYSASYRYSGVPSRFSGSGSGTDFTLTISSLQPEDFATYFCHQYSSYPFTFGQGTKLEIKR
1.5 nM | 1 nM | APE14949 (antibody, V domains shown, M6-p1625 series) VH: QVQLVQSGAEVKKPGASVKVSCKASGYTFSRYWIEWVRQAPGQGLEWMGEILPGSGSINHNEKFQGRVTFTADTSTSTVYMELSSLRSEDTAVYYCTRHYGSFDYWGQGTTVTVSS VL: DIQMTQSPSSLSASVGDRVTITCKASQNVGTDVAWFQQKPGKAPKSLIYSASYRYNGVPSRFSGSGSGTDFTLTISSLQPEDFATYYCHQYSSYPFTFGQGTKLEIKR
16.4 nM | 16.7 nM | APE15088 (antibody, V domains shown, M6-p1625 series) VH: QVQLVQSGAEVKKPGASVKVSCKASGYTFSRYWIEWVRQAPGQGLEWMGEILPGSGSINHNEKFQGRVTMTRDTSTSTVYMELSSLRSEDTAVYYCTRHYGSFDYWGQGTTVTVSS VL: DIQMTQSPSSLSASVGDRVTITCKASQNVGTNVAWYQQKPGKAPKSLIYSASYRYSGVPSRFSGSGSGTDFTLTISSLQPEDFATYFCHQYSSYPFTFGQGTKLEIKR
4.31 nM | 3.56 nM | APE15087 (antibody, V domains shown, M6-p1625 series) VH: QVQLVQSGAEVKKPGASVKVSCKASGYTFSRYWIEWVRQAPGQGLEWMGEILPGSGSINHNEKFQGRVTMTRDTSTSTVYMELSSLRSEDTAVYYCTRHYGSFDYWGQGTTVTVSS VL: DIQMTQSPSSLSASVGDRVTITCKASQNVGTEVAWYQQKPGKAPKSLIYSASYRYSGVPSRFSGSGSGTDFTLTISSLQPEDFATYFCHQYSSYPFTFGQGTKLEIKR
0.358 nM | 0.266 nM | APE14948 (antibody, V domains shown, M6-p1625 series) VH: QVQLVQSGAEVKKPGASVKVSCKASGYTFSRYWIEWVRQAPGQGLEWMGEILPGSGSINHNEKFQGRVTFTADTSTSTVYMELSSLRSEDTAVYYCTRHYGSFDYWGQGTTVTVSS VL: DIQMTQSPSSLSASVGDRVTITCKASQNVGTDVAWYQQKPGKAPKSLIYSASYRYSGVPSRFSGSGSGTDFTLTISSLQPEDFATYFCHQYSSYPFTFGQGTKLEIKR
0.229 nM | 0.244 nM | APE15277 (antibody, V domains shown, M6-p1625 series) VH: QVQLVQSGAEVKKPGASVKVSCKASGYTFISYWIQWVRQAPGQGLEWMGEILPGSGSINHNEKFQGRVTMTRDTSTSTVYMELSSLRSEDTAVYYCTRHYGSFDYWGQGTTVTVSS VL: DIQMTQSPSSLSASVGDRVTITCKASQNVGTDVAWYQQKPGKAPKSLIYSASYRYSGVPSRFSGSGSGTDFTLTISSLQPEDFATYFCHQYESYPFTFGQGTKLEIKR
– | 0.345 nM | APE15091 (antibody, V domains shown, M6-p1625 series) VH: QVQLVQSGAEVKKPGASVKVSCKASGYTFSRYWINWVRQAPGQGLEWMGEILPGSGSINHNEKFQGRVTMTRDTSTSTVYMELSSLRSEDTAVYYCTRHYGSFDYWGQGTTVTVSS VL: DIQMTQSPSSLSASVGDRVTITCKASQNVGTDVAWYQQKPGKAPKSLIYSASYRYSGVPSRFSGSGSGTDFTLTISSLQPEDFATYFCHQYSSYPFTFGQGTKLEIKR
0.334 nM | 0.488 nM | APE15278 (antibody, V domains shown, M6-p1625 series) VH: QVQLVQSGAEVKKPGASVKVSCKASGYTFSRYWIEWVRQAPGQGLEWMGEISPGVDTINHNEKFQGRVTMTRDTSTSTVYMELSSLRSEDTAVYYCTRHYGSFDYWGQGTTVTVSS VL: DIQMTQSPSSLSASVGDRVTITCKASQNVGTDVAWYQQKPGKAPKSLIYSASYRYSGVPSRFSGSGSGTDFTLTISSLQPEDFATYFCHQYESYPFTFGQGTKLEIKR
0.158 nM | 0.154 nM | APE15085 (antibody, V domains shown, M6-p1625 series) VH: QVQLVQSGAEVKKPGASVKVSCKASGYTFSRYWIEWVRQAPGQGLEWMGEILPGSGSINHNEKFQGRVTMTRDTSTSTVYMELSSLRSEDTAVYYCTRHYGSFDYWGQGTTVTVSS VL: DIQMTQSPSSLSASVGDRVTITCKASQNVGTDVAWYQQKPGKAPKSLIYSASYRYSGVPSRFSGSGSGTDFTLTISSLQPEDFATYFCHQYESYPFTFGQGTKLEIKR
– | 0.126 nM | APE15092 (antibody, V domains shown, M6-p1625 series) VH: QVQLVQSGAEVKKPGASVKVSCKASGYTFSRYWIQWVRQAPGQGLEWMGEILPGSGSINHNEKFQGRVTMTRDTSTSTVYMELSSLRSEDTAVYYCTRHYGSFDYWGQGTTVTVSS VL: DIQMTQSPSSLSASVGDRVTITCKASQNVGTDVAWYQQKPGKAPKSLIYSASYRYSGVPSRFSGSGSGTDFTLTISSLQPEDFATYFCHQYSSYPFTFGQGTKLEIKR
1.46 nM | 0.977 nM | APE14947 (antibody, V domains shown, M6-p1625 series) VH: QVQLVQSGAEVKKPGASVKVSCKASGYTFSRYWIEWVRQAPGQGLEWMGEILPGSGSINHNEKFQGRVTFTADTSTSTVYMELSSLRSEDTAVYFCTRHYGSFDYWGQGTTVTVSS VL: DIQMTQSPSSLSASVGDRVTITCKASQNVGTDVAWFQQKPGKAPKSLIYSASYRYNGVPSRFSGSGSGTDFTLTISSLQPEDFATYYCHQYSSYPFTFGQGTKLEIKR
– | 0.189 nM | APE15093 (antibody, V domains shown, M6-p1625 series) VH: QVQLVQSGAEVKKPGASVKVSCKASGYTFTRYWIEWVRQAPGQGLEWMGEILPGSGSINHNEKFQGRVTMTRDTSTSTVYMELSSLRSEDTAVYYCTRHYGSFDYWGQGTTVTVSS VL: DIQMTQSPSSLSASVGDRVTITCKASQNVGTDVAWYQQKPGKAPKSLIYSASYRYSGVPSRFSGSGSGTDFTLTISSLQPEDFATYFCHQYSSYPFTFGQGTKLEIKR
0.804 nM | 0.584 nM | APE14951 (antibody, V domains shown, M6-p1625 series) VH: QVQLVQSGAEVKKPGASVKVSCKASGYTFSRYWIEWVRQAPGQGLEWMGEILPGSGSINHNEKFQGRVTMTRDTSTSTVYMELSSLRSEDTAVYYCTRHYGSFDYWGQGTTVTVSS VL: DIQMTQSPSSLSASVGDRVTITCKASQNVGTDVAWFQQKPGKAPKSLIYSASYRYNGVPSRFSGSGSGTDFTLTISSLQPEDFATYYCHQYSSYPFTFGQGTKLEIKR
0.305 nM | 0.25 nM | APE15086 (antibody, V domains shown, M6-p1625 series) VH: QVQLVQSGAEVKKPGASVKVSCKASGYTFSRYWIEWVRQAPGQGLEWMGEILPGSGSINHNEKFQGRVTMTRDTSTSTVYMELSSLRSEDTAVYYCTRHYGSFDYWGQGTTVTVSS VL: DIQMTQSPSSLSASVGDRVTITCKASQNVGTDVAWYQQKPGKAPKSLIYSASYRYSGVPSRFSGSGSGTDFTLTISSLQPEDFATYFCQQYSSYPFTFGQGTKLEIKR
